± gives the standard deviation.

This series can be described thus: protein stability index of a GFP-peptide fusion (GPS, HEK-293T) (PSI 1-6); higher = more stable.
Where [1] appears, read: treatment: DMSO, c terminus: a fixed tail appended.
The mark [2] stands for this setting: treatment: MLN4924 1 uM, 8 h, c terminus: a fixed tail appended.
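Also: 24-mer peptide tiles fused after GFP, lentivirally expressed, FACS-sorted into six equal bins by GFP/DsRed ratio, decoded by Illumina sequencing, PSI is the read-weighted mean bin number.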

Take LSPKIMQEAFLVQEVVELPVTERQ [TBC1D10A]: the protein stability index amounted to 3.98 ± 0.19 under setting [1] and 3.91 ± 0.39 under setting [2].
Take LSQADFLVCTFSSQVCRVAYEIMQ [FUT8]: the protein stability index reads like this: under setting [1], 2.96 ± 0.39; under setting [2], 2.93 ± 0.58.
With LSSQCFSNISRPRDNPMCLKCDLQ [M1AP], the protein stability index reads like this: under setting [1], 3.2 ± 0.035; under setting [2], 3.27 ± 0.15.
Consider LTERKYKGDSTIRELKAKLSGVEE [SASS6], for which the protein stability index turned out to be 4.18 ± 0.41 under setting [1] and 4.63 ± 0.52 under setting [2].
As to LTFMNEQGEYPPGTSTWQFNFKFN [CNOT7], the protein stability index reads like this: under setting [1], 2.21 ± 0.074; under setting [2], 2.39 ± 0.3.
As to LTPGQSDSAKREVKQKISPYFKSN [FAN1], the protein stability index by setting is: under setting [1], 3.92 ± 0.19; under setting [2], 3.97 ± 0.26.
For LTRQLVSCSSDGGIAVWNMDVSRE [WDFY1], the protein stability index was 2.96 ± 0.32 under setting [1] and 3.08 ± 0.2 under setting [2].
As for LTTKGEMPVQLTSRREIRKIMGVE [ANKRD40], the protein stability index worked out at 3.7 ± 0.048 under setting [1] and 3.85 ± 0.18 under setting [2].
LVFLELAQFHCAYQLADWCLHHIC [RHOBTB2] showed a protein stability index under setting [1] of 3.16 ± 0.17 and a protein stability index under setting [2] of 2.98 ± 0.43.
In the case of LVGAQAPATEEQEAASSSSTLVEV [MAGEA3], the protein stability index is, setting by setting: under setting [1], 5.43 ± 0.21; under setting [2], 5.3 ± 0.097.
Take LYGGMNYRRLGGGVGVIKMTHCES [KLHL20]: the protein stability index runs as follows: under setting [1], 2.3 ± 0.25; under setting [2], 2.85 ± 0.66.
On to LYRNGKDQDGDQAPEYRGRTELLK [MOG], for which the protein stability index came out at 4.59 ± 0.14 under setting [1] and 4.68 ± 0.34 under setting [2].
MAAGFPYALRAYLGYQAVPSGSSG [CEBPB] had a protein stability index under setting [1] of 2.1 ± 0.3 and a protein stability index under setting [2] of 2.04 ± 0.18.
Turning to MAAHLKKRVYEEFTKVVQPQEEIA [INTS4], the protein stability index reads like this: under setting [1], 3.67 ± 0.093; under setting [2], 3.68 ± 0.7.
As for MAAPPKAPIRVRNLTIRAGALTGK [DMRTC1], the protein stability index runs as follows: under setting [1], 3.57 ± 0.33; under setting [2], 3.73 ± 0.22.
As to MADPWQECMDYAVTLARQAGEVVC [IMPA1], the protein stability index reads like this: under setting [1], 2.56 ± 0.44; under setting [2], 2.37 ± 0.21.
For MAEASATGACGEAMAAAEGSSGPA [SEPHS2], the protein stability index came out at 5.44 ± 0.2 under setting [1] and 5.3 ± 0.17 under setting [2].
On to MASVRIREAKEGDCGDILRLIREL [SAT2], for which the protein stability index is 3.01 ± 0.17 under setting [1] and 3.23 ± 0.37 under setting [2].
MAVRPSLPESGLLSVLQIAQQDLA [FANCE] gave a protein stability index under setting [1] of 3.29 ± 0.28 and a protein stability index under setting [2] of 3.53 ± 0.35.
Turning to MCPPVSMRYEEEGMSYLYASWMYQ [TEX19], the protein stability index under setting [1] came to 2.3 ± 0.082 and the protein stability index under setting [2] was 2.11 ± 0.22.
For the sequence MDDQGCPRCKTTKYRNPSLKLMVN [MNAT1], the protein stability index runs as follows: under setting [1], 2.8 ± 0.16; under setting [2], 3.21 ± 0.22.
For MDSDMDYERPNVETIKCVVVGDNA [RHOBTB2], in that order: 4.74 ± 0.21 and 4.87 ± 0.22.
For the sequence MEAYLPKKNGLYLSLVLGNVNVTL [TMEM120A], the protein stability index reads like this: under setting [1], 3.28 ± 0.49; under setting [2], 3.44 ± 0.35.
For MEEDKLLSAVPEEGDATRDPGPEP [PSD2], in that order: 5.54 ± 0.1 and 5.52 ± 0.16.
Regarding MELLTNNLKFITDPFVCRLRHLSP [OR4A15], the protein stability index runs as follows: under setting [1], 2.17 ± 0.22; under setting [2], 2.58 ± 0.38.
Sequence MEVPQPEPAPGSALSPAGVCGGAQ [CDC25B] had a protein stability index under setting [1] of 5.25 ± 0.34 and a protein stability index under setting [2] of 5.23 ± 0.33.
For MFGFFFGRTPLIKLSPKKTWEGFI [CDS2], in that order: 2.38 ± 0.48 and 2.35 ± 0.49.
MGKSASKQFHNEVLKAHNEYRQKH [GLIPR2] had a protein stability index under setting [1] of 3.94 ± 0.27 and a protein stability index under setting [2] of 3.96 ± 0.28.
Consider MGNSHCVPQAPRRLRASFSRKPSL [PLEKHN1], for which the protein stability index runs as follows: under setting [1], 3.66 ± 0.096; under setting [2], 3.69 ± 0.11.
For MKEPITKAEILESVIKNYEDHFPL [MAGEA10], in that order: 3.98 ± 0.31 and 3.93 ± 0.38.
In turn, MKNEKLLSKASEPKYQLFVPQLVT [RNF180] showed a protein stability index under setting [1] of 2.69 ± 0.3 and a protein stability index under setting [2] of 2.82 ± 0.24.
As for MKRQNVRTLSLIVCTFTYLLVGAA [KCNK9], the protein stability index came out at 3.36 ± 0.22 under setting [1] and 2.95 ± 0.37 under setting [2].
Regarding MLDHHPVAITVEVKQEEDIKPPPP [RAD54B], the protein stability index was found to be 5.08 ± 0.22 under setting [1] and 5.19 ± 0.1 under setting [2].
Take MLGFRPYRFYFYMWKFVSPLCMAV [SLC6A17]: the protein stability index by setting is: under setting [1], 2.27 ± 0.25; under setting [2], 2.29 ± 0.68.
In the case of MLLFLSVPQPRPPGARTRAGAARV [FBXO33], the protein stability index reads like this: under setting [1], 2.31 ± 0.26; under setting [2], 2.13 ± 0.21.
In the case of MPNVMTGTMGMAPLGNTPMMNQSM [CLINT1], the protein stability index runs as follows: under setting [1], 3.68 ± 0.23; under setting [2], 3.48 ± 0.27.
Take MPRHNYHKVAPLVQSLCAKHGIEY [FADS1]: the protein stability index runs as follows: under setting [1], 2.64 ± 0.36; under setting [2], 2.5 ± 0.36.
For the sequence MRDRHVNMHLNLRPFDCPVCNKKF [ZBTB22], the protein stability index is, setting by setting: under setting [1], 2.99 ± 0.32; under setting [2], 3.44 ± 0.55.
MRQFLRGLDFLHANCIVHRDLKPE [CDK4]: the protein stability index by setting is: under setting [1], 2.21 ± 0.22; under setting [2], 2.23 ± 0.13.
Regarding MTHQNVELFKELSINVMKQLIGSS [GMCL1], the protein stability index came to 2.35 ± 0.21 under setting [1] and 2.37 ± 0.57 under setting [2].
For MTQLSSTLARCAKDILGFAVMFFI [PKD2L1], in that order: 2.39 ± 0.37 and 2.28 ± 0.42.
Consider NAKLASDDFRSKYQTEQSLRLLVE [KRT34], for which the protein stability index was determined as 3.16 ± 0.34 under setting [1] and 3.04 ± 0.49 under setting [2].
For NDTNSFTVDCEPSDLFRLQEYNIP [CDS2], in that order: 3.65 ± 0.16 and 3.74 ± 0.21.
As to NEGLMKWENRHEGVFKFLRSEAVA [ELF3], the protein stability index came out at 3.01 ± 0.11 under setting [1] and 3.09 ± 0.22 under setting [2].
For NGMAIIRPPGHHAQHSLMDGYCMF [HDAC6], in that order: 2.37 ± 0.17 and 2.21 ± 0.31.
Consider NGPLGPSEASIASNLQAMSTQMFQ [SMG5], for which the protein stability index is, setting by setting: under setting [1], 3.93 ± 0.18; under setting [2], 3.95 ± 0.074.
As to NLEGNELQRHADEFLLDLGHHERS [FUT8], the protein stability index under setting [1] was found to be 4.84 ± 0.062 and the protein stability index under setting [2] came to 4.83 ± 0.31.
As for NLPIIAKMAAVSKASGRFGLLQGT [SEPHS2], the protein stability index is 2.31 ± 0.18 under setting [1] and 2.25 ± 0.2 under setting [2].
NLQDTLEAASFLQILPVLDFCKVF [KLHL13] yielded a protein stability index under setting [1] of 2.73 ± 0.35 and a protein stability index under setting [2] of 2.63 ± 0.52.
In turn, NLRYGFTKEVMNKYKVHGKEILRT [PPEF2] came in with a protein stability index under setting [1] of 2.63 ± 0.3 and a protein stability index under setting [2] of 2.57 ± 0.31.
For the sequence NMCGYHSQDRYEFSSHITRGEHRF [IKZF1], the protein stability index turned out to be 2.47 ± 0.24 under setting [1] and 2.55 ± 0.65 under setting [2].
Consider NNQEEETEFKELDGLREALANLRG [CCDC89], for which the protein stability index runs as follows: under setting [1], 4.71 ± 0.29; under setting [2], 4.58 ± 0.4.
For NPEEDEDQRNPAKESLETPSNGRI [SOAT1], in that order: 5.76 ± 0.064 and 5.62 ± 0.077.
As to NRTLWRLDLAGNNIPGDVLRAVEQ [LRRC45], the protein stability index was found to be 3.01 ± 0.6 under setting [1] and 3.51 ± 0.43 under setting [2].
For NSDRMTHCGVLEFVADEGICYLPH [UFD1], in that order: 2.87 ± 0.17 and 2.68 ± 0.36.
For NSELVQSGKSEISELRRTMQALEI [KRT17], in that order: 3.94 ± 0.18 and 3.94 ± 0.42.
Consider NSVSSHASSPYISSVQSYPGSASL [DLX1], for which the protein stability index by setting is: under setting [1], 3.65 ± 0.19; under setting [2], 3.75 ± 0.23.
For NTQTEELNQQVVSSSEQLQCCQTE [KRT36], in that order: 5.49 ± 0.28 and 5.51 ± 0.081.
As for NVHFKEETVKLFICELVMALDYLQ [STK32A], the protein stability index runs as follows: under setting [1], 2.81 ± 0.7; under setting [2], 2.85 ± 0.62.
NVLHVARLPNRQLISCSEDGSVRI [WDR41]: the protein stability index is, setting by setting: under setting [1], 2.99 ± 0.17; under setting [2], 3.12 ± 0.32.
NVLLFKKQNPGKFCLLSCGILTFL [RETREG3]: the protein stability index reads like this: under setting [1], 2.43 ± 0.69; under setting [2], 2.89 ± 0.73.
On to NVPSSSLPAQPNRKPGMSSTARRS [CHMP4C], for which the protein stability index worked out at 4.9 ± 0.32 under setting [1] and 4.99 ± 0.13 under setting [2].
NVVVHDWLYYYAYKDFLWFFSKRF [SOAT1]: the protein stability index worked out at 2.18 ± 0.35 under setting [1] and 2.17 ± 0.44 under setting [2].
As for NWIVPGKFLAFSGPHPKSKIENGY [CDC14A], the protein stability index came out at 2.32 ± 0.36 under setting [1] and 2.61 ± 0.48 under setting [2].
Turning to NWRRKHEEFIATIRAAKGLDQALK [ZC2HC1A], the protein stability index stood at 2.71 ± 0.18 under setting [1] and 2.78 ± 0.24 under setting [2].
For NYTATVRGLRGPNLTSPASITFTT [TNXB], in that order: 2.66 ± 0.23 and 2.79 ± 0.41.
In the case of PALKIYEYHVKPLQTKHLKNNSS [SAMD13], the protein stability index by setting is: (treatment: DMSO, c terminus: native) 3 ± 0.15; (treatment: MLN4924 1 uM, 8 h, c terminus: native) 3.04 ± 0.2.
Take PAPLLVLCPSRAELDRWLYHLEKQ [PLEKHN1]: the protein stability index under setting [1] came to 2.62 ± 0.11 and the protein stability index under setting [2] was 2.17 ± 0.29.
Regarding PAQLSEDITRYYLCLQLRDDIVSG [EPB41L3], the protein stability index was found to be 2.3 ± 0.24 under setting [1] and 2.43 ± 0.35 under setting [2].
Turning to PAVRQLLPCARVQICRAQGLETLF [ZSWIM9], the protein stability index reads like this: under setting [1], 2.19 ± 0.49; under setting [2], 2.5 ± 0.64.
Consider PAYVGPEILSSRASYSGKAADVWS [TRIB3], for which the protein stability index is, setting by setting: under setting [1], 3.09 ± 0.2; under setting [2], 3.18 ± 0.19.
PDCLRACQEQIEALLESSLRQAQQ [CCND1]: the protein stability index is 3.23 ± 0.34 under setting [1] and 3.59 ± 0.38 under setting [2].

Source of the values: the supplement of paper PMC10567573.
